Drawing on patent US20200087367A1 (ACCELERON PHARMA, published 2020), this text covers Kd and koff for one molecule.

This assay deals with T1, hENG(26-437)-hFc (human, UniProt P17813 26-437).
T1 construct: HEK 293, purified; not shown: linker and human IgG1 Fc domain
T1 sequence: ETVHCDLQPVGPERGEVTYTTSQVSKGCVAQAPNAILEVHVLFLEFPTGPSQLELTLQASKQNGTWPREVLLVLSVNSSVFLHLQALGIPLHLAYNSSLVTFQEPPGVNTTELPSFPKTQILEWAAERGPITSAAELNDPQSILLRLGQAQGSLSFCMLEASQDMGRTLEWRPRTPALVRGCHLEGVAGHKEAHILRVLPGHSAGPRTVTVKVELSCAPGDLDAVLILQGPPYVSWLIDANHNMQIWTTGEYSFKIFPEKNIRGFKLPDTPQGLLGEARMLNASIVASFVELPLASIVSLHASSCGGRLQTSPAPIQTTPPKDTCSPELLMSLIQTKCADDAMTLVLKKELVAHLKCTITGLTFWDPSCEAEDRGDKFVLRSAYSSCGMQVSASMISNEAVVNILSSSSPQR
The experiment in a line: SPR kinetics; HEK293-cell-derived protein.

B1: BMP10 (ligand)
chain: NAKGNYCKRTPLYIDFKEIGWDSWIIAPPGYEAYECRGVCNYPLAEHLTPTKHAIIQALVHLKNSQKASKACCVPTKLEPISILYLDKGVVTYKFKYEGMAVSECGCR
notes: also called hBMP-10; hBMP10
As a reminder, the Kd is the concentration at which binding is half-saturated. Usually koff stands for the first-order rate constant of dissociation. In the case of B1, binding was put at a Kd of 0.13 nM and the off-rate constant (koff) was determined as 0.0028 s⁻¹.
